The target of experiment [1] is T1, 15N-labelled NHR4 MYND domain of RUNX1T1 (UniProt Q06455 510-559, 15N-labelled).
T1 chain: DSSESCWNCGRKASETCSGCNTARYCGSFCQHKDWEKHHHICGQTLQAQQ
Put plainly: NMR; pH 6.

Experiment [2] has as its target T1, 15N-labelled NHR4 MYND domain of RUNX1T1. The experiment can be described thus: NMR; pH 7.5.

B1: RCOR3_1 peptide (human RCOR3 residues 410-422) (peptide)
peptide: Ac-TLNQPPPLLRPTL-NH2
Consider B1, for which binding in experiment [1] was characterised by a dissociation constant (Kd) of 820 µM.

B2: RCOR3_3 peptide (human RCOR3 residues 448-460) (peptide)
peptide: Ac-LNQPPPPLIRPAN-NH2
For the molecule B2, the Kd came out at 680 µM in experiment [1] and 370 µM in experiment [2].

B3: NCOR2 peptide (human NCOR2 residues 1101-1113) (peptide)
peptide: Ac-TISNPPPLISSAK-NH2
In turn, B3 registered a Kd in experiment [1] of 370 µM.

As usually defined, the Kd is the constant that tells how readily two partners part at equilibrium. A high value points to a looser complex.

The values above are taken from article PMC11239676 (2024).
